From publication PMC11393453, “Phosphorylation of tau at a single residue inhibits binding to the E3 ubiquitin ligase, CHIP” (Nature Communications, 2024)
Residue numbers refer to the chain shown, from its start. Names and notes keep the numbering of the source. Where two headings read alike, the source gives them in different places. Values belong to the molecule of their own block, whether it stands above or below them. Non-standard residues stand in square brackets, D forms with d. pS = N[C@@H](COP(=O)(O)O)C(=O)O

Legend:
CHIP [1] = assay: NanoBiT live cell PPI assay (CHIP-tau split luciferase); assay type: cell-based; conditions: 30 nM okadaic acid; HEK293 cells
Procedure: Fig. 1 Phosphorylation of tauC3 inhibits interaction with CHIP. A Cartoon schematic of the live-cell NanoBiT assay for measuring CHIP-tau PPIs (NanoBiT PDB = 7SNX; CHIP PDB = 2C2L). B Results of NanoBiT assays for CHIP interactions with tau proteoforms following treatment with okadaic acid (30 nM, 18 h) or DMSO control. Luminescence normalized to CHIP binding to FL 0N4R tau treated with vehicle (dashed line). Error bars represent standard deviation (SD). Statistical significance was determined by two-way ANOVA with Bonferroni’s post hoc analysis (n = 3 biological replicates). CTRL = mock transfected control. C Tau proteoforms binding to immobilized CHIP measured by ELISA. Assay was performed in technical triplicate and normalized to maximum absorbance at 450 nm. D Dissociation constants derived from (C). Error bars represent SD. E In vitro ubiquitination of tau proteoforms by CHIP. Samples were collected at the denoted timepoints, quenched in SDS-PAGE loading buffer, and analyzed by western blot. Assay was performed once.
Fig. 2 Phosphorylation of tauC3 Ser416 is sufficient to inhibit interaction with CHIP. A Cartoon depicting constructs used for mapping of inhibitory phosphorylation sites by NanoBiT live cell assays. B NanoBiT live cell assay for CHIP interactions with truncated tau constructs following treatment with okadaic acid (30 nM, 18 h) or DMSO control. Data are shown as the difference between okadaic acid treated samples and vehicle control. Error bars represent SD. Statistical significance was determined by two-sided, one-way ANOVA with Tukey’s post hoc analysis (n = 3 biological replicates). C Apparent change in melting temperatures (Tmapp) for CHIP incubated with DMSO control or Hsp70 C-terminal peptides, as determined by DSF. Error bars represent SD. (n = 4 technical replicates). D DSF experiments performed and analyzed as in the previous panel, but with tauC3-derived peptides. (n = 4 technical replicates). E Competition FP experiment showing displacement of fluorescent tracer from the CHIP TPR domain by various 10-mer Hsp70 or tauC3-derived peptides. Experiments were performed in technical quadruplicate. F Inhibition constants derived from (E). Error bars represent SD. G Tau proteoforms binding to immobilized CHIP, as measured by ELISA. Assay was performed in technical triplicate and normalized to maximum absorbance at 450 nm. H Dissociation constants derived from (G). Error bars represent SD.
CHIP-substrate NanoBiT PPI assay was performed as previously described. Briefly, HEK293T cells were seeded in poly-D-lysine coated 96-well plates (Corning, flat bottom, white opaque) in Opti-MEM. Cells were transfected with 50 ng each SmBiT/LgBiT DNA using Lipofectamine 3000 (Thermo Fisher) in Opti-MEM according to the manufacturer’s instructions. Transfections were performed for 24 h, after which the media was replaced with fresh Opti-MEM containing DMSO or 30 nM okadaic acid. Cells were incubated for an additional […] at 37 °C/5% CO2 in a humidified incubator. Following this incubation, 12.5 uL 1X Nano-Glo live cell luciferase reagent (Promega) diluted in LCS buffer (Promega) was added to each well, and samples were incubated for 10 min at room temperature in the dark to allow luminescence levels to stabilize. […] Un-transfected cells were used to obtain background measurements which were subtracted from observed luminescence values.

CHIP [2] = assay: Differential scanning fluorimetry (DSF), CHIP WT with 10-mer peptides; assay type: binding, human; conditions: CHIP + peptide, sheet S3B
Procedure: DSF was performed with a 10 µL assay volume in 384-well Axygen quantitative PCR plates (Fisher Sci) on a qTower[3] real-time PCR thermal cycler (Analytik Jena). […] Temperature was increased 1 °C per cycle. Each well contained 5 µM CHIP, 5× Sypro Orange dye (Thermo Fisher), and varying concentrations of peptide in DSF assay buffer (25 mM HEPES pH 7.4, 50 mM KCl, 1 mM TCEP, 0.2% CHAPS, 1%DMSO). Fluorescence intensity data was truncated between 30–60 °C, plotted relative to temperature, and fit to a Boltzmann Sigmoid in GraphPad Prism 9.0. CHIP apparent melting temp (Tmapp) was calculated based on the following equation:1 Y=Bottom+((Top−Bottom)/(1+exp(Tm−T/Slope)))

[3] = target: CHIP (C-terminus of Hsc70 interacting protein; STUB1) (UniProt Q9UNE7); assay: competition FP against fluorescent tracer; conditions: reference: unmodified Hsp70 peptide; sites T636
[4] = target: CHIP (C-terminus of Hsc70 interacting protein; STUB1) (UniProt Q9UNE7); assay: differential scanning fluorimetry of CHIP
[5] = target: GFP-tagged tauC3 S416E, doxycycline-inducible in HEK293 Flp-In T-REx cells; assay: co-IP; tau immunoprecipitated with anti-Tau-5 and Protein A/G agarose from lysates of HEK293 Flp-In T-REx GFP-tau cells (25 mM Tris-HCl pH 7.4, 150 mM NaCl, 1 mM EDTA, 1% NP-40); co-precipitated endogenous CHIP by western blot
[6] = target: CHIP (C-terminus of Hsc70 interacting protein; STUB1), recombinant human, full-length (human) (UniProt Q9UNE7)
[7] = target: CHIP (C-terminus of Hsc70 interacting protein; STUB1) (UniProt Q9UNE7); assay: tau IP (Tau-5), CHIP western blot; conditions: reference: GFP-tauC3 WT; sites S416
[8] = target: CHIP (C-terminus of Hsc70 interacting protein; STUB1), recombinant human, full-length (human) (UniProt Q9UNE7); remark: listed apart in the source
[9] = target: T1, CHIP (C-terminus of Hsc70 interacting protein; STUB1), recombinant human, full-length (human, UniProt Q9UNE7 1-303); assay: fluorescence polarisation; competition: CHIP 1.58 µM + fluorescent tracer 20 nM, peptide competitor in three-fold dilutions, 25 mM HEPES pH 7.4, 50 mM KCl, 0.01% Triton X-100, DMSO; Ki calculated from IC50; conditions: both partners purified
T1 construct: CHIP (STUB1), human, E3 ubiquitin ligase; Used in ELISA, DSF and FP; the FP legends speak of the CHIP TPR domain, the FP methods only of CHIP; also called WT CHIP; source: E. coli BL21DE3, purified (Ni-NTA, TEV cleavage, SEC); not shown: His6, N-terminal, cleaved
T1 sequence (looked up): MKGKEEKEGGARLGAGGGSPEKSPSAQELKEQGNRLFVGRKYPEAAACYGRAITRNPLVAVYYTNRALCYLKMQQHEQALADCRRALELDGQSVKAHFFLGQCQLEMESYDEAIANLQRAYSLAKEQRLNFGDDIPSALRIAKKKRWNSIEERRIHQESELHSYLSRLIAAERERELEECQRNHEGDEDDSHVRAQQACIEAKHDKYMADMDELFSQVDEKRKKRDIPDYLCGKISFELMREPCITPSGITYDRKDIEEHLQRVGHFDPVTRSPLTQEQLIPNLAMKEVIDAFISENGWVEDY

CHIP D134A [10] = target: T2, CHIP D134A (human, UniProt Q9UNE7 1-303, D134A); assay: as above; conditions: both partners purified
T2 construct: CHIP (STUB1) with Asp134 mutated to alanine; also called D134A CHIP
T2 sequence (looked up): T1 sequence (looked up) with D134A

CHIP F131A = target: T3, CHIP F131A (human, UniProt Q9UNE7 1-303, F131A); assay: differential scanning fluorimetry; 5 µM CHIP, 5x Sypro Orange, varying concentrations of peptide in 25 mM HEPES pH 7.4, 50 mM KCl, 1 mM TCEP, 0.2% CHAPS, 1% DMSO; apparent melting temperature (Tmapp) of CHIP; conditions: both partners purified
T3 construct: CHIP (STUB1) with Phe131 mutated to alanine
T3 sequence (looked up): T1 sequence (looked up) with F131A

CHIP D134A [11] = target: T2, CHIP D134A; assay: as above; conditions: both partners purified
[12] = reference: unmodified tauC3 peptide, sites S416

Molecule: C=C1[C@@H](O)[C@@H]2O[C@]3(CC[C@H](/C=C/[C@@H](C)[C@@H]4CC(C)=C[C@@]5(O[C@H](C[C@@](C)(O)C(=O)O)CC[C@H]5O)O4)O3)CC[C@H]2O[C@@H]1[C@@H](O)C[C@H](C)[C@H]1O[C@@]2(CCCCO2)CC[C@H]1C [okadaic acid, reference compound]
effect on CHIP interaction with FL tau (CHIP [1]): enhanced CHIP’s interaction with FL tau | effect on CHIP interaction with tauC3 (CHIP [1]): significantly lessened the interaction with tauC3

Molecule: ESTGSIDMVD [tauC3 S412E, 10-mer tauC3 phosphomimetic peptide]
Tm(app) derived from DSF curves (CHIP [2]; replicate 1): 50.23 | Tm(app) derived from DSF curves (CHIP [2]; replicate 2): 50.09 | Tm(app) derived from DSF curves (CHIP [2]; replicate 3): 49.65 | Tm(app) derived from DSF curves (CHIP [2]; replicate 4): 49.78

Molecule: Hsp70 (HSPA1A) C-terminal 10mer (from UniProt P0DMV8) pT636 peptide
binding against the reference [3]: weaker | binding against the reference ([4]; reference: unmodified Hsp70 peptide, sites T636): weaker

Molecule: SETGSIDMVD [tauC3 S413E, 10-mer tauC3 phosphomimetic peptide]
Tm(app) derived from DSF curves (CHIP [2]; replicate 1): 50.06 | Tm(app) derived from DSF curves (CHIP [2]; replicate 2): 50.15 | Tm(app) derived from DSF curves (CHIP [2]; replicate 3): 49.96 | Tm(app) derived from DSF curves (CHIP [2]; replicate 4): 49.5

Molecule: SSEGSIDMVD [tauC3 T414E, 10-mer tauC3 phosphomimetic peptide]
Tm(app) derived from DSF curves (CHIP [2]; replicate 1): 49.33 | Tm(app) derived from DSF curves (CHIP [2]; replicate 2): 49.12 | Tm(app) derived from DSF curves (CHIP [2]; replicate 3): 49.22 | Tm(app) derived from DSF curves (CHIP [2]; replicate 4): 48.96

Molecule: p.tauC3, natively phosphorylated tauC3 from Sf9 insect cells (domain or fragment)
Kd [6]: 700 nM

Molecule: tauC3, unmodified recombinant (0N4R tau cleaved at D421) (domain or fragment)
Kd [6]: 190 nM | Kd [8]: 90 nM

B2: tauC3 C-terminal 10-mer peptide Ac-SSTGSIDMVD-OH (peptide)
peptide: Ac-SSTGSIDMVD-OH
notes: C-terminus of tauC3 (tau ending at D421); numbers count on: the 2N4R-tau splice isoform; also called WT tauC3 peptide; WT tauC3; source: synthetic peptide
Ki [9]: 150 nM | Ki (CHIP D134A [10]): 5570 nM | binding result (CHIP F131A): binds

B3: tauC3 S416E phosphomimetic 10-mer peptide Ac-SSTGEIDMVD-OH (peptide)
peptide: Ac-SSTGEIDMVD-OH
notes: C-terminus of tauC3 with S416 replaced by glutamic acid; numbers count on: the 2N4R-tau splice isoform; also called tauC3 S416E peptide; pS416 phosphomimetic; source: synthetic peptide
Ki [9]: 2410 nM | binding result (CHIP D134A [11]): binds | binding result (CHIP F131A): binds

Results, then the molecule that gave them:

relative amount of co-immunoprecipitated CHIP [5]: 0.55
Molecule: endogenous CHIP (from UniProt Q9UNE7 1-303) (enzyme)

other: CHIP Tmapp [4, 12]: weaker; reference 48.81 ± 0.11
Molecule: tau (MAPT/tau; tauC3, FL 0N4R tau) C-terminal 10-mer of tauC3, ends at D421 (from UniProt P10636-8) S416E peptide (Ac-…-OH)

binding against the reference [4, 12]: weaker
Molecule: tau (MAPT/tau; tauC3, FL 0N4R tau) C-terminal 10-mer of tauC3, ends at D421 (from UniProt P10636-8) pS416 peptide

other: relative amount of co-IP CHIP [7]: 0.55
Molecule: tau (MAPT/tau; tauC3, FL 0N4R tau) tauC3, ends at D421 (from UniProt P10636-8) GFP-tauC3 S416E

Kd [8]: 780 nM
Molecule: tauC3 S416E, recombinant protein with a single phosphomimetic mutation (domain or fragment)

Ki [9]: 1010 nM | Ki (CHIP D134A [10]): 1840 nM
B1: tauC3 pS416 10-mer peptide (peptide)
peptide: Ac-SSTG[pS]IDMVD-OH
notes: C-terminal 10-mer of tauC3 with a bona fide phosphoserine at the S416 position; numbers count on: the 2N4R-tau splice isoform; also called phosphorylated tauC3 peptide; source: synthetic peptide (Genscript)
